No end group written: not given here.
What was measured:
Assay in all cases: AlphaScreen or HTRF
[1] = biological target: T1, H6-tagged Arabidopsis TPR4 N-terminal domain, TPR4(1–209) (Arabidopsis, UniProt Q27GK7 1-209)
T1 sequence (looked up): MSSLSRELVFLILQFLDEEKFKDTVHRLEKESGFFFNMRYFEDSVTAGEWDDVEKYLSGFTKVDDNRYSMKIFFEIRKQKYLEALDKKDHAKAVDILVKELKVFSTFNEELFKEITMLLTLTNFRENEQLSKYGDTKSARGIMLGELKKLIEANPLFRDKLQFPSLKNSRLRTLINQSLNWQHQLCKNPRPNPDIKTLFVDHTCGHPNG

[2] = biological target: T2, H6-tagged OsTPR1 N-terminal domain (TPD), TPR1(1–209) (rice, UniProt Q10NY2 1-209)
T2 sequence (looked up): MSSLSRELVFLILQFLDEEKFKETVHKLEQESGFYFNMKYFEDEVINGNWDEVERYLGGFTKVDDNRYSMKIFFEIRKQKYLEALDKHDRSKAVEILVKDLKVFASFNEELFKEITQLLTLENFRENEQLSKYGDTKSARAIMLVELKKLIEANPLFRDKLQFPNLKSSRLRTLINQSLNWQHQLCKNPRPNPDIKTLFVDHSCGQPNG

[3] = biological target: T3, H6-tagged OsTPL N-terminal domain (TPD), TPL(1–209) (rice, UniProt Q0J7U6 1-209)
T3 sequence (looked up): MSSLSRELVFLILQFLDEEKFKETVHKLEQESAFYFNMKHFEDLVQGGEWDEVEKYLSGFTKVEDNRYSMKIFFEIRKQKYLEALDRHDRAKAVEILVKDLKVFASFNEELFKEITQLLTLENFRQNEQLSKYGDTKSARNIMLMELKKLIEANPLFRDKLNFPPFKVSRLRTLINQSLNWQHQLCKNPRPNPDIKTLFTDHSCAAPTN

[4] = biological target: T4, H6-tagged OsTPR2 N-terminal domain (TPD), TPR2(1–210) (rice, UniProt Q5NBT9 1-210)
T4 sequence (looked up): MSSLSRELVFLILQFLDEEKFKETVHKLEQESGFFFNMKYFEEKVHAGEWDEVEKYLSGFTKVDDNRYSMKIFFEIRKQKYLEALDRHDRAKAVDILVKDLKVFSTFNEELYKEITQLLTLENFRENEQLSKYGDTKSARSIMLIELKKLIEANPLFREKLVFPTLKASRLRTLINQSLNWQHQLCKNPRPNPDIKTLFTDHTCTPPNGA

[5] = biological target: T5, H6-tagged Arabidopsis TPR1 N-terminal domain, TPR1(1–209) (Arabidopsis, UniProt Q0WV90 1-209)
T5 sequence (looked up): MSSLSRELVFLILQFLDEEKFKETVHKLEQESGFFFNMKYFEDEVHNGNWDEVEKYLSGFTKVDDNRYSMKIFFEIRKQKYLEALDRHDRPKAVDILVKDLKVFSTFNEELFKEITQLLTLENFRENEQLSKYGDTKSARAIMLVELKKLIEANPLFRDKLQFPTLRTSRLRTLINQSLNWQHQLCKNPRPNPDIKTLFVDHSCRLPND

[6] = biological target: T6, H6-tagged Arabidopsis TPL N-terminal domain, TPL(1–209) (Arabidopsis, UniProt Q94AI7 1-209)
T6 sequence (looked up): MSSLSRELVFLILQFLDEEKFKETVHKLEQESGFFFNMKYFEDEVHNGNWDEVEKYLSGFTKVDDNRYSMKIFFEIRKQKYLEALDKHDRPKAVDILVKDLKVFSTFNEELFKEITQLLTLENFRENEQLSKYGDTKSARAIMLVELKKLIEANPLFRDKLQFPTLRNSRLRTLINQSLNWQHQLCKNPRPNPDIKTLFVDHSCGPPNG

[7] = biological target: T7, H6-tagged Arabidopsis TPR3 N-terminal domain, TPR3(1–209) (Arabidopsis, UniProt Q84JM4 1-209)
T7 sequence (looked up): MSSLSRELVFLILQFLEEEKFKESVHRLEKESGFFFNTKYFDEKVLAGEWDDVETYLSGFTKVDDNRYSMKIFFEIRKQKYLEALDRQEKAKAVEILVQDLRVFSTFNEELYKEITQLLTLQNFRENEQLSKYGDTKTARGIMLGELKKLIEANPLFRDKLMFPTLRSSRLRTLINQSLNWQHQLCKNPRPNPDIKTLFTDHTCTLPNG

[8] = biological target: T8, H6-tagged Arabidopsis TPR2 N-terminal domain, TPR2(1–209) (Arabidopsis, UniProt Q9LRZ0 1-209)
T8 sequence (looked up): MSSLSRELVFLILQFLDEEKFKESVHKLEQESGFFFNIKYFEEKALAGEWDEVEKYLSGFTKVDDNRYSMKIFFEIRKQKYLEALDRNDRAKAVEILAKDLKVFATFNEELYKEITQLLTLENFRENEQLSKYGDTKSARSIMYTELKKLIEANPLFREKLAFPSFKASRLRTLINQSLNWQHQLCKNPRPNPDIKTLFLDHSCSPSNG

Measured: binding result

DNGLELSLGLSC (also: biotinylated, end not given here) [biotinylated NINJA EAR motif peptide (12 amino acids, wild type)]
binds: all assays above
